Data: patent US20170355769A1 (AbbVie / Abbott, published 2017)
Substitutions are numbered along the chain they refer to.

T1: Cyno B7-H3-ECD (his tag) (cynomolgus)
T1 construct: SPR analyte; also called soluble ECD of cyno B7-H3
T1 chain: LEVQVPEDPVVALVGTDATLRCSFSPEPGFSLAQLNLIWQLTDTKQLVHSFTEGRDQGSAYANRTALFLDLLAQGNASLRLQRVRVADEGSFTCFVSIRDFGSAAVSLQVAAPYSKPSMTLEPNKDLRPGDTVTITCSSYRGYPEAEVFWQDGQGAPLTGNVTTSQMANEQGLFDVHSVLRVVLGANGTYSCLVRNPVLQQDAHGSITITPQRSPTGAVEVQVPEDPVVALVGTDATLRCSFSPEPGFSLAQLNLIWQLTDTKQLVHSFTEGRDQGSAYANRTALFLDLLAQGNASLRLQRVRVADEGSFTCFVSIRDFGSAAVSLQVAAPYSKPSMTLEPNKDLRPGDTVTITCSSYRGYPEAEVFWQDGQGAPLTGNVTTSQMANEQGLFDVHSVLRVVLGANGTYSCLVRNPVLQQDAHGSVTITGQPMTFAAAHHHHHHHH

T2: Human B7-H3-ECD (His tag) (human, UniProt Q5ZPR3 29-461)
T2 construct: SPR analyte; also called huB7-H3; soluble ECD of human B7-H3
T2 sequence: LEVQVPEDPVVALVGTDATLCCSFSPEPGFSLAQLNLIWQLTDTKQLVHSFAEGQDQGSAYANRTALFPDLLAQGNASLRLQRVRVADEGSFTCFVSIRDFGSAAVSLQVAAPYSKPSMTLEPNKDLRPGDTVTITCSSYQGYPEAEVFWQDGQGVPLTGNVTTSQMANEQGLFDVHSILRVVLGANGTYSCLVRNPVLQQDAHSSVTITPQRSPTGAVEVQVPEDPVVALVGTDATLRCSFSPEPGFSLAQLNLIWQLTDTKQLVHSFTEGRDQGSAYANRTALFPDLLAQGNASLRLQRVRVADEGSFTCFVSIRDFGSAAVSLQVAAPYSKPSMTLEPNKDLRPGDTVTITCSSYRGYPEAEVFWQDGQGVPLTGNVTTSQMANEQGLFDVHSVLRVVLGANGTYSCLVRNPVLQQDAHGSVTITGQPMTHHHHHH

T3: Human full length B7-H3 (human, UniProt Q5ZPR3 29-534)
T3 construct: On 3T12 fibroblasts expressing full length human B7-H3 or on NCI-H1650 cells; signal peptide residues 1-28 stated; also called huB7-H3; CD276
T3 sequence: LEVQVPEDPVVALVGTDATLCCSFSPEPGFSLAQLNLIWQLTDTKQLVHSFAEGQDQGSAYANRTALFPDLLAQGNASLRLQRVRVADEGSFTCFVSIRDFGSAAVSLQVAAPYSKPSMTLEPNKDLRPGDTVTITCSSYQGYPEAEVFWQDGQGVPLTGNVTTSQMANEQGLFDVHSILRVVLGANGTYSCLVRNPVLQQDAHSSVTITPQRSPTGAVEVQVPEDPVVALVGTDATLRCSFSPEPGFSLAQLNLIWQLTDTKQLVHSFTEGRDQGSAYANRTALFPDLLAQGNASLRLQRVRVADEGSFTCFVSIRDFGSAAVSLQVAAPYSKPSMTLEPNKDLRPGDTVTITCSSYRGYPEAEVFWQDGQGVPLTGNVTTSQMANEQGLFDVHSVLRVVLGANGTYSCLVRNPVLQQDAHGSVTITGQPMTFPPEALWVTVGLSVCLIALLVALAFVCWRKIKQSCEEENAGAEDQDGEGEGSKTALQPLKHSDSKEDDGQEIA

T4: Mouse B7-H3 on cells (mouse, UniProt Q8VE98 29-316)
T4 construct: whole, on cells
T4 sequence (looked up): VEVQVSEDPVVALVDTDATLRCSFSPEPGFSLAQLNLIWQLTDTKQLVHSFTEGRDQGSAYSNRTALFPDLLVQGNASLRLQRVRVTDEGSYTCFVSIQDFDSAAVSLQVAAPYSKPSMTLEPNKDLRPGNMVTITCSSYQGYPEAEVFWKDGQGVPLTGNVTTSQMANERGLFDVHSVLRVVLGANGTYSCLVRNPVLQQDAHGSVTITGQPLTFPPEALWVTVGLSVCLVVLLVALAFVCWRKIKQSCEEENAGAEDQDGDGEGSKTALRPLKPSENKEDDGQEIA

B1: Ab18 (antibody, mouse IgG1, V domains shown)
VH: QVQLQQSAAELARPGASVKMSCKASGYSFTSYTIHWVKQRPGQGLEWIGYINPNSRNTDYNQKFKDETTLTADRSSSTAYMQLISLTSEDSAVYYCARYSGSTPYWYFDVWGAGTTVTVSS
VL: QIVLTQSPAILSASPGEKVTMTCRASSSVSYMNWYQQKPGSSPKPWIYATSNLASGVPARFSVSVSGTSHSLTISRVEAEDAATYYCQQWSSNPLTFGAGTKLELK
notes: mouse IgG1/k
B2: Ab8 (antibody, mouse IgG1, V domains shown)
VH: EVKLVESGGGLVKPGGSLKLSCAASGFTFSSYGMSWVRQTPEKRLEWVATISGGGNYTYCPDSVKGRFTISRDNAKNNLYLQMSSLRSEDTALYYCTRQRGYDYHYAMDFWGQGTSVTVSS
VL: DIQMTQSPASLSVSVGETVTITCRASENIYSNLAWHQQKQGKSPQLLVYAATNLADGVPSRFSGNGSDTQYSLKINSLQSEDFGSYFCQNFWGTSWTFGGGTKLEIK
notes: mouse IgG1/k
B3: Ab7 (antibody, mouse IgG1, V domains shown)
VH: EVQLVESGENLVKPGGSLKLSCAASGFSFRGYGMSWVRQTPDKRLEWVAAISTGGNYTYYPDSVQGRFTISRDNANNTLYLQMSSLKSEDTAMYYCARRGGNYAGFAYWGQGTLVTVSA
VL: B2 VL with A25P, H36Y, N65S, D68G, S85T, F87Y, N90H, S95P, W96F, G100S
notes: mouse IgG1/k
B4: Ab10 (antibody, V domains shown)
VH: DVQLQESGPGLVKPSQSLSLTCTVTGYSITSDYAWNWIRQFPGNRLEWMGHINYSGITNYNPSLKSRISITRDTSKNQFFLQLYSVTTEDTATYFCARRSLFYYYGSSLYAMDYWGQGTSVTVSS
VL: DVVMTQSPFSLPVSLGDQASISCRSSQSLVHSNGNTYLHWYLQKPGQSPKLLIYKVSNRFSGVPDRFSGSGSGTDFTLKISRVEAEDLGVYFCSQSTHVPWTFGGGTKLEIK
notes: mouse IgG2b/k
B5: Ab12 (antibody, mouse IgG1, V domains shown)
VH: EVQLVESGGGLVKPGGSLKLSCAASGFTFSSYAMSWVRQTPEKRLEWVATISSGTNYTYYPDSVKGRFTISRDNAKNTLYLQMTSLRSEDTAMYYCARQGRYSWIAYWGQGTLVTVSA
VL: DIVLTQSPASLAVSLGQRATISCRASKSVSTSDYSYMHWNQQKPGQPPKLLIYLASNLESGVPARFSGSGSGTDFTLNIHPVEEEDAATYYCQHSRELLTFGAGTKLELK
notes: mouse IgG1/k
B6: Ab4 (antibody, mouse IgG2b, V domains shown)
VH: QVQLQQPGAELVKPGASVKLSCKASGYSFTSYWMHWVKQRPGQGLEWIGMIHPNSGSNNYNEKFKSKATLTVDKSSNTAYMQLSSLTSEDSAVYYCARRLGLHFDYWGQGTTLTVSS
VL: DIVMTQSQKFMSTPVGDRVSITCKASQNVGTAVAWYQQKPGQSPKLLIYSASNRYTGVPDRFTGSGSGTDFTLTISNMQSEDLADYFCQQYSSYPYTFGGGTKLEIK
notes: mouse IgG2b/k
B7: Ab9 (antibody, V domains shown)
VH: QVQLQQSGAEVKKPGSSVKVSCKASGGTFSSYAISWVRQAPGQGLEWMGGIIPILGIANYAQKFQGRVTITADESTSTAYMELSSLRSEDTAVYYCARGGSGSYHMDVWGKGTTVTVSS
VL: EIVLTQSPATLSLSPGERATLSCRASQSVSSYLAWYQQKPGQAPRLLIYDASNRATGIPARFSGSGSGTDFTLTISSLEPEDFAVYYCQQRSNWPPRITFGQGTRLEIKR
B8: huAb3v2.6-YG (antibody, human IgG1, kappa, L234A L235A, V domains shown)
VH: EVQLVQSGAEVKKPGSSVKVSCKASGYTFSSYWMHWVRQAPGQGLEWIGLIHPESGSTNYNEMFKNRATLTVDRSTSTAYMELSSLRSEDTAVYYCAGGGRLYFDYWGQGTTVTVSS
VL: DIVMTQSPLSLPVTPGEPASISCRSSQSLVHSNQDTYLRWYLQKPGQSPQLLIYKVSNRFSGVPDRFSGSGSGTDFTLKISRVEAEDVGVYYCSQSTHVPYTFGGGTKVEIKR
modifications: synthon YG on reduced interchain Cys
B9: huAb3v2.6-KZ (antibody, human IgG1, kappa, L234A L235A, V domains shown)
VH: B8 VH
VL: B8 VL
modifications: synthon KZ on reduced interchain Cys
B10: huAb13v1-AAD (antibody, human IgG1, kappa, L234A L235A, V domains shown)
VH: EVQLQESGPGLVKPSETLSLTCAVTGYSITSGYSWHWIRQFPGNGLEWMGYIHSSGSTNYNPSLKSRISISRDTSKNQFFLKLSSVTAADTAVYYCAGYDDYFEYWGQGTTVTVSS
VL: DIQMTQSPSSLSASVGDRVTITCKASQNVGFNVAWYQQKPGKSPKALIYSASYRYSGVPSRFSGSGSGTDFTLTISSLQPEDFAEYFCQQYNWYPFTFGQGTKLEIKR
modifications: synthon AAD on reduced interchain Cys
B11: huAb13v1-ZT (antibody, human IgG1, kappa, L234A L235A, V domains shown)
VH: B10 VH
VL: B10 VL
modifications: synthon ZT on reduced interchain Cys
B12: huAb13v1-WD (antibody, human IgG1, kappa, L234A L235A, V domains shown)
VH: B10 VH
VL: B10 VL
modifications: synthon WD on reduced interchain Cys
B13: huAb13v1-ZZ (antibody, human IgG1, kappa, L234A L235A, V domains shown)
VH: B10 VH
VL: B10 VL
modifications: synthon ZZ on reduced interchain Cys
B14: huAb13v1-LB (antibody, human IgG1, kappa, L234A L235A, V domains shown)
VH: B10 VH
VL: B10 VL
modifications: synthon LB on reduced interchain Cys

Biological target: T1, Cyno B7-H3-ECD (his tag)
Assay: SPR, mAb captured, ECD analyte

| Binder | Kd [nM] | koff [s⁻¹] | kon [M⁻¹ s⁻¹] | binding result |
| --- | --- | --- | --- | --- |
| B1 | 0.12 | 2.9e-05 | 240000 |  |
| B2 | 1.7 | 0.00026 | 160000 |  |
| B3 |  |  |  | binds |
| B4 | 20 | 0.0042 | 200000 |  |
| B5 | ≤ 0.18 | ≤ 1e-05 | 55000 |  |
| B6 | 1.8 | 0.00096 | 540000 |  |

These binders were tested against T2, Human B7-H3-ECD (His tag) (assay: SPR, mAb captured, ECD analyte).

| Binder | Kd [nM] | koff [s⁻¹] | kon [M⁻¹ s⁻¹] |
| --- | --- | --- | --- |
| B1 | 0.17 | 3.6e-05 | 210000 |
| B2 | 1.7 | 9.9e-05 | 58000 |
| B7 | 17 | 0.0011 | 66000 |
| B4 | 4.6 | 0.00019 | 41000 |
| B5 | 6.7 | 0.00025 | 38000 |
| B6 | 1.6 | 0.0011 | 690000 |

Each binder was assayed against T3, Human full length B7-H3 (assay: FACS, 3T12 transfectants).
Protocol: (§1) A selection of hits were subcloned using the MoFlo (Beckman, Indianapolis, Ind., US) by depositing a single cell per well into 96 well cell culture plates to ensure clonality of the cell line. Resulting colonies were screened for specificity by FACS using mouse 3T12 fibroblast cell lines expressing the human B7-H3, cynomolgous B7-H3 or mouse B7-H3. Isotype of each monoclonal antibody was determined using the Mouse Monoclonal Isostyping Kit (Roche, No. 11-493-027-001, Indianapolis, Ind., USA).

| Binder | EC50 [nM] |
| --- | --- |
| B1 | 5.98 |
| B2 | 3.83 |
| B3 | 3.22 |
| B7 | 4.49 |
| B4 | 3.97 |
| B5 | 3.88 |
| B6 | 4.06 |

These binders were tested against T5, Cynomolgous B7-H3 on cells (cynomolgus) (assay: FACS, 3T12 transfectants).
T5 construct: whole, on cells; also called cyB7-H3; cyno B7-H3
Protocol: as §1

| Binder | EC50 [nM] |
| --- | --- |
| B1 | 6.49 |
| B2 | 8.63 |
| B3 | 2.67 |
| B7 | 259 |
| B4 | 4.46 |
| B5 | 6.71 |
| B6 | 3.1 |

What follows are binders tested against T4, Mouse B7-H3 on cells (assay: FACS, 3T12 transfectants).
Protocol: as §1

| Binder | binding result | EC50 [nM] |
| --- | --- | --- |
| B1 | no binding |  |
| B2 |  | 193 |
| B3 |  | 67.1 |
| B7 |  | 0.72 |
| B4 |  | 3.8 |
| B5 |  | 8.72 |
| B6 |  | 1.75 |

What follows are binders tested against T3, Human full length B7-H3 (assay: cell-based or functional assay).

| Binder | EC50 nM H1650 (tumor cell cytotoxicity) [nM] |
| --- | --- |
| B8 | 0.68 |
| B9 | 5.52 |
| B10 | 0.21 |
| B11 | 0.3 |
| B12 | 0.45 |
| B13 | 0.42 |
| B14 | > 133 |
